The source of these data is patent publication WO2005003174A1 (dated 2005).

This assay concerns the target T1, fusion protein consisting of soluble CD64 linked to the Fc portion of human IgM (human, UniProt P12314 16-292; P01871 106-453, limits assumed).
T1 construct: domain: soluble CD64;domain: Fc portion; Used as a supernatant and detected with alkaline phosphatase labelled goat anti-human IgM; also called soluble CD64-IgM fusion protein
Nature of the assay: bispecific ELISA: PsaA coated, detection with soluble CD64-IgM fusion and anti-human IgM. In general terms: In an ELISA, binding on a coated surface is turned into a signal by an enzyme label.

T1 sequence (P12314 other isoform, or with tags, fused parts or gaps limits assumed): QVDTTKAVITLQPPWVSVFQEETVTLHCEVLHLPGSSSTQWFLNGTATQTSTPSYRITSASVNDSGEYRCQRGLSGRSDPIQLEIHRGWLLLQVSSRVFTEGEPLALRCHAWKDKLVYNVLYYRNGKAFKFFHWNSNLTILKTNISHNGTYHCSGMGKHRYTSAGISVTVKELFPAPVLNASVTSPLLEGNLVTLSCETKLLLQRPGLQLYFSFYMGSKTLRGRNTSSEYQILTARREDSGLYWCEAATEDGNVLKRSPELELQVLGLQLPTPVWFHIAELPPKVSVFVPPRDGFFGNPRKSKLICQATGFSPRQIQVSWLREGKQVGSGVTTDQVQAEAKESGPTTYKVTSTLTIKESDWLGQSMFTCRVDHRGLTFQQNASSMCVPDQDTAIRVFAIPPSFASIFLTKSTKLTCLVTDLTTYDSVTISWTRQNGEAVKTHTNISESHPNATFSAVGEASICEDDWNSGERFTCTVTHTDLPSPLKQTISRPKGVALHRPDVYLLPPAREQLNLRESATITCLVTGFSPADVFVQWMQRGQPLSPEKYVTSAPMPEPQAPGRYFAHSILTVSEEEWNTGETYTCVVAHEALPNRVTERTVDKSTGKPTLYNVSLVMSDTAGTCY

B1: F(ab')2 fragment of the anti-PsaA Ab 5-9A7 (antibody, V domains shown)
VH: EVQLVESGGGLVQPGGSLRLSCAASGFTFSSFWMSWVRQAPGKGLEWVANIKQDGSEKFYVDSVKGRFTISRDNAKNSLYLQMNSLRAEDTAVYYCARDRITMVRPYYYFYNGLDVWGQGTTVTVSS
VL: EIVLTQSPATLSLSPGERATLSCRASQSVSSYLAWYQQKPGQAPRLLIYDASNRATGIPARFSGSGSGTDFTLTISSLEPEDFAVYYCQQRSNWPPFTFGPGTKVDIK
notes: F(ab')2 fragment made by pepsin digestion of the human antibody 5-9A7; also called anti-PsaA F(ab')2
As to B1, the binding result is “no binding”.
